Test results reported in paper PMC5880400, “FIN219/JAR1 and cryptochrome1 antagonize each other to modulate photomorphogenesis under blue light in Arabidopsis” (PLoS Genetics, 2018).

Molecular target: T1, CBP-CRY1 (cryptochrome1 full-length, recombinant) (Arabidopsis thaliana, UniProt Q43125 1-681)
T1 construct: cryptochrome1 (CRY1), Arabidopsis thaliana, full-length; also called CRY1/pCal-n; CRY1 full-length; source: E. coli BL21 (DE3) codon plus, purified (electroelution), acetone-precipitated and resuspended in PBS
T1 sequence (Q43125 whole entry): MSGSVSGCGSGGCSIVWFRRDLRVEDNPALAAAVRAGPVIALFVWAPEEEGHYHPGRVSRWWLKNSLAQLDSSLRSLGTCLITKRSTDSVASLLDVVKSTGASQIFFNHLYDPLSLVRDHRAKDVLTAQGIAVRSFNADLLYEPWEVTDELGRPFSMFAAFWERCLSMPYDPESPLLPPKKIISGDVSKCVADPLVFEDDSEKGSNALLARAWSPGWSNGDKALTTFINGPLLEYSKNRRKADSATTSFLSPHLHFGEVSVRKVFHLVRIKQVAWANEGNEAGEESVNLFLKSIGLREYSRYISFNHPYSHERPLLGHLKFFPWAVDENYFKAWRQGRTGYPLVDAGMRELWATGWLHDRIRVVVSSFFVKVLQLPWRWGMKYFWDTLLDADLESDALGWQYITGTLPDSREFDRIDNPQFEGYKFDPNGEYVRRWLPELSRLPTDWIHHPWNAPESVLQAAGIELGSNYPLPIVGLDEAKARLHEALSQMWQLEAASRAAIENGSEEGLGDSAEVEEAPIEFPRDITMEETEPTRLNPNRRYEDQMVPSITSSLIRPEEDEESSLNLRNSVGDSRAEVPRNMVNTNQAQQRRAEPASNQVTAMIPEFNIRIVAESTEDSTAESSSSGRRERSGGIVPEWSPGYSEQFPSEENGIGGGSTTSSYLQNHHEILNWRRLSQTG
Test: pull-down; 5 ug purified recombinant protein mixed in 500 ul interaction buffer (50 mM Tris-HCl pH 7.5, 10 mM MgCl2, 100 mM NaCl, 1 mM PMSF, 0.04% NP-40), 4°C 1 h; GST fusions held on GSH sepharose; blot probed with antibodies against the CBP-tag
Settings: both partners purified

B1: GST-FIN219 (FIN219/JAR1 full-length, recombinant) (natural protein, Arabidopsis thaliana, UniProt Q9SKE2 1-575, looked up)
chain: MLEKVETFDMNRVIDEFDEMTRNAHQVQKQTLKEILLKNQSAIYLQNCGLNGNATDPEEAFKSMVPLVTDVELEPYIKRMVDGDTSPILTGHPVPAISLSSGTSQGRPKFIPFTDELMENTLQLFRTAFAFRNRDFPIDDNGKALQFIFSSKQYISTGGVPVGTATTNVYRNPNFKAGMKSITSPSCSPDEVIFSPDVHQALYCHLLSGILFRDQVQYVFAVFAHGLVHAFRTFEQVWEEIVTDIKDGVLSNRITVPSVRTAMSKLLTPNPELAETIRTKCMSLSNWYGLIPALFPNAKYVYGIMTGSMEPYVPKLRHYAGDLPLVSHDYGSSEGWIAANVTPRLSPEEATFAVIPNLGYFEFLPVSETGEGEEKPVGLTQVKIGEEYEVVITNYAGLYRYRLGDVVKVIGFYNNTPQLKFICRRNLILSINIDKNTERDLQLSVESAAKRLSEEKIEVIDFSSYIDVSTDPGHYAIFWEISGETNEDVLQDCCNCLDRAFIDAGYVSSRKCKTIGALELRVVAKGTFRKIQEHFLGLGSSAGQFKMPRCVKPSNAKVLQILCENVVSSYFSTAF
notes: FIN219/JAR1, Arabidopsis thaliana, full-length; also called GST-FIN219 full-length; FIN219FL/pGEX-4T-1; source: E. coli BL21 (DE3) codon plus, purified (GSH sepharose), acetone-precipitated and resuspended in PBS
Question: Does B1 bind?
Answer: Result: binds
